{"source": "patent US20240398942A1", "about": "(CHIA TAI TIANQING PHARMACEUTICAL GROUP, published 2024)", "key": {"[1]": {"biological_target": "T1, cynomolgus monkey CD40-his protein (Acro biosystems, Cat. No. CD0-C52H6) (cynomolgus monkey, UniProt G7PG38 21-193)", "T1 construct": "Bought protein; not shown: His tag", "experiment": "SPR (Biacore T200), antibody captured, CD40-his as analyte, 1:1 fit", "text": "(§1) Briefly, a goat anti-human IgG (GE Healthcare, Cat. No. BR100839, human antibody capture kit) was covalently linked to a CM5 chip (GE Healthcare, Cat. No. BR100530, carboxymethylated dextran-coated chip) via the primary amine group using a standard amine coupling kit supplied by Biacore (GE Healthcare, Pittsburgh, PA, USA). Unreacted portions on the biosensor surface were blocked with ethanolamine. Then, the anti-CD40 antibody of the present application and two benchmark antibodies (BM1 (dacetuzumab, Genentech Inc., also referred to CD40-BM1, prepared in-house; the heavy and light chain amino acid sequences are set forth in SEQ ID NOs: 40 and 41, respectively) and BM2 (selicrelumab, Abgenix Inc., also referred to CD40-BM2, prepared in-house; the heavy and light chain amino acid sequences are set forth in SEQ ID NOS: 42 and 43, respectively)) at a concentration of 66.67 nM were directed through the chip at a flow rate of 10 μL/min. Then, serially diluted recombinant human CD40-his (Acro biosystems, Cat. No. CD0-H5228, serially 2-fold diluted from 80 nM in HBS-EP⁺ buffer (supplied by Biacore)) or cynomolgus monkey CD40-his protein (Acro biosystems, Cat. No. CD0-C52H6, serially 2-fold diluted from 80 nM in HBS-EP⁺ buffer (supplied by Biacore)) was directed through the chip at a flow rate of 30 μL/min. The antigen-antibody binding kinetics was tracked for 2 min and the dissociation kinetics was tracked for 10 min. The association and dissociation curves were fitted to a 1:1 Langmuir binding model using BIAcore evaluation software. KD, Kₐ, and Kd values were determined."}, "[2]": {"biological_target": "T2, recombinant human CD40-his (Acro biosystems, Cat. No. CD0-H5228) (human, UniProt P25942 21-193)", "T2 construct": "Bought protein; also called human CD40-his protein; not shown: His tag", "experiment": "SPR (Biacore T200), antibody captured, CD40-his as analyte, 1:1 fit", "text": "as §1"}, "[3]": {"biological_target": "T1, cynomolgus monkey CD40-his protein …", "experiment": "SPR (Biacore T200), antibody captured, CD40-his as analyte, 1:1 fit", "remark": "listed apart in the source"}, "human CD40-Fc protein": {"biological_target": "T3, human CD40-Fc protein (human, biotinylated (sites not given) in the capture ELISA and the benchmark blocking ELISA; not biotinylated in the ligand blocking ELISA)", "T3 construct": "also called biotinylated human CD40-Fc", "experiment": "competitive ELISA (self-competition): BM2 (selicrelumab) coated as competitor, soluble BM2 titrated and pre-mixed with biotinylated human CD40-Fc 0.23 nM, streptavidin-HRP, OD(450-630)", "method": "The ability of the anti-CD40 antibody of the present application to block the binding of the benchmark to human CD40 was determined by competitive ELISA. Briefly, BM2 antibody was immobilized on a 96-well micro plates at 1 μg/mL in PBS, 100 µL/well, and incubated overnight at 4° C. The next day, the plate was washed once with a washing buffer before a blocking buffer (PBST containing 5% w/v of skim milk) was added. The plate was then incubated at 37° C. for 2 h for blocking. During the blocking of the 96-well plate, the anti-CD40 antibody of the present application or the benchmark was serially 5-fold diluted from 66.7 nM with a biotinylated human CD40-Fc protein (amino acid residues 21-193 of SEQ ID NO: 30 linked to the N terminus of amino acid residues 99-330 of SEQ ID NO: 28, dissolved in PBST containing 2.5% w/v of skim milk at a concentration of 0.23 nM) and then incubated at room temperature for 40 min. After the plate was washed 4 times, the antibody/biotinylated human CD40-Fc mixture was added at 100 μL/well to the plate coated with BM2. The plate was incubated at 37° C. for 40 min and again washed 4 times with the washing buffer. […] The absorbance was read on a microplate reader using the dual wavelength mode (TMB detection wavelength: 450 nm, reference wavelength: 630 nm). […] Data were analyzed using Graphpad Prism software, and IC₅₀ values were obtained."}}, "note": "Like-named read-outs stand apart in the source and are kept apart here."}
{"binder": "mouse anti-CD40 monoclonal antibody C1H1 (antibody, V domains shown, Parent mouse antibody from a hybridoma; the mouse constant regions are not; also called Mouse C1H1) VH: EVKLVESGGGLVKPGASLKLSCAASGFTFSNYGISWVRQTSDKRLEWVASISSGGDNTYYPDNVKGRFTISRENAKNTLYLQMSSLKSEDTALYYCARAGEKAMDYWGQGTSVTVSS VL: DIVLTQSPVTLSVTPGDSVSLSCRASQTINNNLHWYQQKSHESPRLLIKYASQSISGIPSRFSGSGSGTDFTLSINSVETEDFGIYFCQQFSSWPLTFGAGTKLELK", "values": [{"measurement": "Kd", "setting": "[1]", "value": 0.852, "unit": "nM"}, {"measurement": "koff", "setting": "[1]", "value": 0.00118, "unit": "s⁻¹"}, {"measurement": "kon", "setting": "[1]", "value": "1.39e+06", "unit": "M⁻¹ s⁻¹"}, {"measurement": "Kd", "setting": "[2]", "value": 0.684, "unit": "nM"}, {"measurement": "koff", "setting": "[2]", "value": 0.00123, "unit": "s⁻¹"}, {"measurement": "kon", "setting": "[2]", "value": "1.79e+06", "unit": "M⁻¹ s⁻¹"}, {"measurement": "Kd", "setting": "[3]", "value": 0.377, "unit": "nM"}, {"measurement": "koff", "setting": "[3]", "value": 0.000863, "unit": "s⁻¹"}, {"measurement": "kon", "setting": "[3]", "value": "2.29e+06", "unit": "M⁻¹ s⁻¹"}]}
{"binder": "BM2 (selicrelumab) (antibody, human IgG2, kappa, V domains shown, Benchmark antibody, prepared in-house; also called CD40-BM2; benchmark) VH: not shown VL: DIQMTQSPSSVSASVGDRVTITCRASQGIYSWLAWYQQKPGKAPNLLIYTASTLQSGVPSRFSGSGSGTDFTLTISSLQPEDFATYYCQQANIFPLTFGGGTKVEIKR", "values": [{"measurement": "IC50", "setting": "human CD40-Fc protein", "value": 0.529, "unit": "nM"}]}
